Source: patent publication US9529005B2, “Modulating bacterial MAM polypeptides in pathogenic disease” (priority 2011, dated 2016)
Like-named read-outs stand apart in the source and are kept apart here.

Tests used:
HeLa cells [1] = format: cell-based; settings: 500 μM heparin from intestinal mucosa
[2] = Pull-down of liposomes (50 mol % PA, 50 mol % PC) on immobilized GST-mce domains; format: binding; settings: 50 mol % PA and 50 mol % PC, molybdophosphoric acid assay
Experimental: Liposomes in load, flowthrough and eluate fractions were quantified using the method of Worth an Wright (1977). Briefly, samples were extracted with a mixture of chloroform and methanol, centrifuged and molybdophosphoric acid (Sigma) was added to the organic phase. Samples were centrifuged and the aqueous phase removed. Metol and sodium bisulfate were added to reduce the organic phase and the aqueous phase was removed again following centrifugation. The amount of phospholipid was determined by measuring absorbance at 680 nm and expressed as fraction of the amount detected in loaded fractions.
Although the inventors had previously shown that MAM1 is sufficient to bind to phosphatidic acid, it was unclear how the other mce domains contributed to phosphatidic acid binding in the absence of fibronectin. The inventors tested all seven individual mce domains (mce1-mce7) for phosphatidic acid binding using liposome association assays. Proteins were incubated with liposomes containing a mixture of PC and increasing amounts (1-80 mol %) of PA, followed by separation of liposome-bound and un-bound fractions by ultracentrifugation. All fractions were analyzed by SDS-PAGE (data not shown) followed by densitometry (FIG. 18A). […] When the inventors analyzed the mce domains of MAM7 for overall charge, they found only minor differences between individual domains. When they looked at charge distribution, however, the inventors observed that several basic residues that are otherwise well conserved between individual domains are mutated in mce 6. These include two residues which are lysines in mce 2, the strongest binding mce domain, but a serine and glutamine in mce 6, respectively, and a well conserved arginine which is replaced by a histidine in mce 6 (FIG. 18D). […]. (FIG. 18B and data not shown). […] GST-mce proteins were immobilized and incubated with liposomes. Bound liposomes were quantified using a molybdophosphoric acid assay. […]

[3] = Liposome association assay; format: binding; settings: for decrease of binding to PA-containing liposomes (apparent affinity): individual GST-mce domains, 1-80 mol % PA, densitometry, relative to high binding mce domains
Experimental: PBS-buffered liposomes were prepared from 1,2-Dioleoyl-sn-glycero-3-phosphocholine (PC) or mixtures of PC and 1,2-dioleoyl-sn-glycero-3-phosphate (PA) (both Avanti Polar Lipids Inc.) as described previously (Selyunin et al., 2011), but using PBS as buffer. 300 μg liposomes were incubated with 100 μg MBP-MAM protein in PBS for one hour at 22° C. Mixtures were centrifuged at 100 000×g, 4° C. for one hour and both pellet and supernatant fractions were separated by SDS-PAGE and proteins were detected by Coomassie staining.
Binding of GST and GST-mce constructs to liposomes were carried out as described in the literature (Krachler et al., 2011). 300 μg liposomes containing PC alone or 1-80 mol % PA were incubated with 100 μg GST and GST-mce proteins in PBS for one hour at 22° C. Mixtures were centrifuged at 100,000×g, 4° C. for one hour and both pellet and supernatant fractions were separated by SDS-PAGE and proteins detected by Coomassie staining Band intensities were determined using the gel analysis software UN-SCAN-IT (Silk Scientific Inc.) and intensities of pellet samples (% bound) were expressed as fraction of total intensities (supernatant and pellet samples combined).

trypsinized cells = assay: Fluorescence attachment assay of labeled MAM7 on trypsinized cells; format: binding; settings: cells treated with trypsin
Experimental: HeLa cells were cultured in sterilized Corning costar 96 well plates (15 000 cells/well) for 16 hours prior to experiments. ALEXAFLUOR®-labeled (fluorescent dye) proteins were diluted into PBS to give final concentrations of 0.1-100 μM and incubated with cells washed with PBS for 1 hour at 37° C. Initial fluorescence and fluorescence output were measured on a plate reader (λexcitation 485 nm, λemission 520 nm) prior to and following three washes with PBS, respectively. Data was expressed as % bound fluorescence and corrected for values determined for MBP alone. Levels of bound protein were blotted as a function of protein concentration and data were fit to a single-site binding model using Sigma Plot. For fluorescence attachment assays on trypsinized cells, cells were detached from the culture dish by trypsinization, which was stopped by adding DMEM after 5 minutes. Cells were adjusted to 600,000/ml in PBS and incubated with 100 μM labeled MBP-MAM7 or MBP in PBS for 30 minutes at 37° C. Fluorescence of the cell suspension was measured before and after extensive washing with PBS as described above.
Attachment assays with live bacteria or purified labeled protein were carried out as described (Krachler et al., 2011). […]

Lipid overlay assay = format: binding; settings: MBP-MAM proteins
Experimental: Pre-spotted PIPstrips™ (Echelon Biosciences Inc.) were incubated in T-TBS containing 5% dry milk powder for one hour at 22° C. MBP-MAM proteins were diluted into blocking buffer to give a final concentration of 10 μM and incubated with the PIP strip for one hour at 22° C. Strips were washed with T-TBS three times for 10 minutes each and incubated with His antibody (QIAGEN) diluted 1:1000 into blocking buffer at 22° C. for one hour. Strips were washed three times with T-TBS and incubated with anti-mouse HRP-conjugated secondary antibody (GE Healthcare) diluted 1:5000 into blocking buffer for 1 hour at 22° C. After three more washes, bound proteins were detected using the ECL plus detection system (GE Healthcare).

V. parahaemolyticus POR1 = assay: BL21 expressing MAM constructs blocking POR1 attachment and POR1-mediated cytotoxicity; settings: construct expressed on E. coli BL21, identical multiplicity of infection
HeLa cells [4] = assay: Fluorescence attachment assay: saturation binding of labeled MBP-MAM proteins to HeLa cells

Molecule	binding of liposomes to immobilized GST-mce proteins [2]	decrease of binding to PA-containing liposomes (apparent affinity) [3]	further results
heparin			BL21-MAM7 remaining attached (HeLa cells [1]): ~40%
mce 4: GST-tagged individual mce domain 4 of V. parahaemolyticus MAM7 (SEQ ID NO: 8) (protein, listed as Vibrio parahaemolyticus, GST tag) SIAIRLISDNSFGLDSGANVLYKGIVVGSIINVGLVDEKKQTKHEVFMDVLIDHEYKHLIKSNNRFYVTGSASAELTESGLSVTVP	strong binding	bound equally well	
mce 6: GST-tagged individual mce domain 6 of V. parahaemolyticus MAM7 (SEQ ID NO: 10) (protein, listed as Vibrio parahaemolyticus, GST tag) FGRVISLETDGTQEVLKGMPIEYQGVKVGEVTLVVPNFRRNLVEVTARILPEYVENIAVEGTHFWLTEPEIGLGGVKNLGALVSKSISVEPG	weaker binding	more than 100 fold	
mce 3: GST-tagged individual mce domain 3 of V. parahaemolyticus MAM7 (SEQ ID NO: 7) (protein, listed as Vibrio parahaemolyticus, GST tag) RGIAIKIALPDDNKVSSEGAPIMYRGIEIGQVTDLSLSEGREVILASAAIQPAFSDMLTTGTRFVLEEAKVSLSGVENIANLVRGNFLTIVPG	strong binding	bound equally well	
MAM7: recombinant MBP-tagged V. parahaemolyticus multivalent adhesion molecule with seven mce domains in tandem (SEQ ID NO:1) (protein, listed as Vibrio parahaemolyticus, MBP tag) MSDQNNSQTSYVPDVKRSKGISPLWLLPILTMVLAGWLVVKSIHDAGQRVQIYFSDAAGLVAGRTTIRYQGLEVGMVRDINLSEDLGSIYVDADIYPEATKLLNDKTRFWLVKPTASLTGVSGLDALVSGNYISIQPGDGQEFETTFHALDSAPTDLRVSQGLNIKLKSRDLGGVSIGSQIVYKKIPIGAVYSYQLDEDAKSITIQANIQEQYRHIINDRSRFWNVSGIGASIGFEGVDVRLESMSALLGGAIAVDSPDDGEPVEENTEFRLYKDLKTAGRGIAIKIALPDDNKVSSEGAPIMYRGIEIGQVTDLSLSEGREVILASAAIQPAFSDMLTTGTRFVLEEAKVSLSGVENIANLVRGNFLTIVPGDGERSRRFTAIRKNVFNQQQEKSIAIRLISDNSFGLDSGANVLYKGIVVGSIINVGLVDEKKQTKHEVFMDVLIDHEYKHLIKSNNRFYVTGSASAELTESGLSVTVPPAKQLLTGSISFVSEGSESIQKEYQLFQNESLAELAQYNKTGSKTLMLFASELPPISKGSPLLYRNLPVGNVSDFHLVDGGVLIKATIENRFAYLVTPQTVFWNRSGIEIDASLSGVSVKAHPLKSLIEGGIAFDSVPGVENKVGERWKLYADQQKARKFGRVISLETDGTQEVLKGMPIEYQGVKVGEVTLVVPNFRRNLVEVTARILPEYVENIAVEGTHFWLTEPEIGLGGVKNLGALVSKSISVEPGNGKAKFDFQLEKGFDRVEGVMFTLQSEQRGSVQVGTPVLYRQMEVGQVTDVRLGEFADRVVSTIKIKPEYAYLVRQNSVFWNVSGVDVSIGITGANIKAGTIDSLVRGGIAFSTPEQSQIPPAAKRGHSFYLYPRADESWVQWRTPIPKP			reduction of the number of MAM7 molecules on cells (trypsinized cells): over 100 fold; binding to PA in lipid overlay assay (Lipid overlay assay): bound to PA; effect on attachment of POR1 and pathogen-mediated cytotoxicity (V. parahaemolyticus POR1): significantly decreased; PA content of liposomes at which binding was seen ([3]; MBP-MAM proteins, PC/PA liposomes): 1 mol %; Kd (HeLa cells [4]; intact host cells, read-out: apparent KD for intact cells): 200 nM; Kd (HeLa cells [4]; saturation binding, ALEXAFLUOR-labeled MBP-MAM proteins, cultivated HeLa cells, read-out: Equilibrium dissociation constants (KD values)): 200 ± 100 nM
mce 5: GST-tagged individual mce domain 5 of V. parahaemolyticus MAM7 (SEQ ID NO: 9) (protein, listed as Vibrio parahaemolyticus, GST tag) GSKTLMLFASELPPISKGSPLLYRNLPVGNVSDFHLVDGGVLIKATIENRFAYLVTPQTVFWNRSGIEIDASLSGVSVKAHPLKSLIEG	weaker binding	~6 fold	
mce 7: GST-tagged individual mce domain 7 of V. parahaemolyticus MAM7 (SEQ ID NO: 11) (protein, listed as Vibrio parahaemolyticus, GST tag) EGVMFTLQSEQRGSVQVGTPVLYRQMEVGQVTDVRLGEFADRVVSTIKIKPEYAYLVRQNSVFWNVSGVDVSIGITGANIKAGTIDSLVRG	strong binding	~20 fold	
mce 2: GST-tagged individual mce domain 2 of V. parahaemolyticus MAM7 (SEQ ID NO: 6) (protein, listed as Vibrio parahaemolyticus, GST tag) QGLNIKLKSRDLGGVSIGSQIVYKKIPIGAVYSYQLDEDAKSITIQANIQEQYRHIINDRSRFWNVSGIGASIGFEGVDVRLESMSALLGG	strong binding	bound equally well	
mce 1: GST-tagged individual mce domain 1 of V. parahaemolyticus MAM7 (SEQ ID NO: 5) (protein, listed as Vibrio parahaemolyticus, GST tag) AGQRVQIYFSDAAGLVAGRTTIRYQGLEVGMVRDINLSEDLGSIYVDADIYPEATKLLNDKTRFWLVKPTASLTGVSGLDALVSGNYISIQPG	strong binding	bound equally well	
